Drawing on patent US20220144956A1 (published 2022), this text covers Kd for 45 molecules.

Where a chain is given by its changes, count along the chain named.

To fix the notation:
B1: H1 L1.12 XENP34575 (antibody, V domains shown)
VH: QLQVQESGPGLVKPSETLSLTCTVSGGSISNSYFSWGWIRQPPGKGLEWIGSFYYGEKTYYNPSLKSRATISIDTSKSQFSLKLSSVTAADTAVYYCPRGPTMIRGVIDSWGQGTLVTVSS
VL: EIVLTQSPATLSLSPGERATLSCRASQSVRTYLAWYQQKPGQAPRLLIYDASNRATGIPARFSGSGSGTDFTLTISSLEPEDFAVYYCQQRSNWPPTFGQGTKVEIK
B2: H1 L1.9 XENP34572 (antibody, V domains shown)
VH: B1 VH
VL: B1 VL with R30Q, T31S
B3: H1 L1.40 XENP34603 (antibody, V domains shown)
VH: B1 VH
VL: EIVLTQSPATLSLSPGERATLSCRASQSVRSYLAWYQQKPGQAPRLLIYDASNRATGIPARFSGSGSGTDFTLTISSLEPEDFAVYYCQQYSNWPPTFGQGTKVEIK
B4: H1 L1.35 XENP34598 (antibody, V domains shown)
VH: B1 VH
VL: B1 VL with T31S, V85T
B5: H1 L1.42 XENP34605 (antibody, V domains shown)
VH: B1 VH
VL: B1 VL with T31S, S92G
B6: H1 L1.22 XENP34585 (antibody, V domains shown)
VH: B1 VH
VL: B1 VL with T31S, D50S
B7: H1 L1.36 XENP34599 (antibody, V domains shown)
VH: B1 VH
VL: B1 VL with T31S, R91E
B8: H1.31 L1 XENP34487 (antibody, V domains shown)
VH: B1 VH with W36I
VL: B1 VL with T31S
B9: H1.33 L1 XENP34489 (antibody, V domains shown)
VH: B1 VH with G37A
VL: B1 VL with T31S
B10: H1.7 L1 XENP34463 (antibody, V domains shown)
VH: B1 VH with T23A
VL: B1 VL with T31S
B11: H1.2 L1 XENP34458 (antibody, V domains shown)
VH: B1 VH with L2V
VL: B1 VL with T31S
B12: H1.10 L1 XENP34466 (antibody, V domains shown)
VH: B1 VH with I29V
VL: B1 VL with T31S
B13: H1.37 L1 XENP34493 (antibody, V domains shown)
VH: B1 VH with I39V
VL: B1 VL with T31S
B14: H1.11 L1 XENP34467 (antibody, V domains shown)
VH: B1 VH with N31D
VL: B1 VL with T31S
B15: H1.13 L1 XENP34469 (antibody, V domains shown)
VH: B1 VH with N31G
VL: B1 VL with T31S
B16: H1.15 L1 XENP34471 (antibody, V domains shown)
VH: B1 VH with N31T
VL: B1 VL with T31S
B17: H1.38 L1 XENP34494 (antibody, V domains shown)
VH: B1 VH with P42A
VL: B1 VL with T31S
B18: H1.34 L1 XENP34490 (antibody, V domains shown)
VH: B1 VH with G37H
VL: B1 VL with T31S
B19: H1.14 L1 XENP34470 (antibody, V domains shown)
VH: B1 VH with N31S
VL: B1 VL with T31S
B20: H1.3 L1 XENP34459 (antibody, V domains shown)
VH: B1 VH with L2V, V4L
VL: B1 VL with T31S
B21: H1.29 L1 XENP34485 (antibody, V domains shown)
VH: B1 VH with S35T
VL: B1 VL with T31S
B22: H1.28 L1 XENP34484 (antibody, V domains shown)
VH: B1 VH with S35A
VL: B1 VL with T31S
B23: H1 L1 WT XENP28298 (antibody, V domains shown)
VH: B1 VH
VL: B1 VL with T31S
B24: H1.23 L1 XENP34479 (antibody, V domains shown)
VH: B1 VH with Y33G
VL: B1 VL with T31S
B25: H1.25 L1 XENP34481 (antibody, V domains shown)
VH: B1 VH with F34H
VL: B1 VL with T31S
B26: H1.19 L1 XENP34475 (antibody, V domains shown)
VH: B1 VH with S32G
VL: B1 VL with T31S
B27: H1.32 L1 XENP34488 (antibody, V domains shown)
VH: B1 VH with W36M
VL: B1 VL with T31S
B28: H1.5 L1 XENP34461 (antibody, V domains shown)
VH: B1 VH with P9S
VL: B1 VL with T31S
B29: H1.1 L1 XENP28299 (antibody, V domains shown)
VH: B1 VH with M103V
VL: B1 VL with T31S
B30: H1.12 L1 XENP34468 (antibody, V domains shown)
VH: B1 VH with N31E
VL: B1 VL with T31S
B31: H1.24 L1 XENP34480 (antibody, V domains shown)
VH: B1 VH with Y33H
VL: B1 VL with T31S
B32: H1.9 L1 XENP34465 (antibody, V domains shown)
VH: B1 VH with I29F
VL: B1 VL with T31S
B33: H1.20 L1 XENP34476 (antibody, V domains shown)
VH: B1 VH with S32T
VL: B1 VL with T31S
B34: H1.26 L1 XENP34482 (antibody, V domains shown)
VH: B1 VH with F34S
VL: B1 VL with T31S
B35: H1.22 L1 XENP34478 (antibody, V domains shown)
VH: B1 VH with Y33D
VL: B1 VL with T31S
B36: H1.16 L1 XENP34472 (antibody, V domains shown)
VH: B1 VH with N31Q
VL: B1 VL with T31S
B37: H1.17 L1 XENP34473 (antibody, V domains shown)
VH: B1 VH with N31R
VL: B1 VL with T31S
B38: H1.27 L1 XENP34483 (antibody, V domains shown)
VH: B1 VH with F34Y
VL: B1 VL with T31S
B39: H1.30 L1 XENP34486 (antibody, V domains shown)
VH: B1 VH with S35Y
VL: B1 VL with T31S
B40: H1.8 L1 XENP34464 (antibody, V domains shown)
VH: B1 VH with G27Y
VL: B1 VL with T31S
B41: H1.4 L1 XENP34460 (antibody, V domains shown)
VH: B1 VH with V4L
VL: B1 VL with T31S
B42: H1.36 L1 XENP34492 (antibody, V domains shown)
VH: B1 VH with G37S
VL: B1 VL with T31S
B43: H1.21 L1 XENP34477 (antibody, V domains shown)
VH: B1 VH with Y33A
VL: B1 VL with T31S
B44: H1.6 L1 XENP34462 (antibody, V domains shown)
VH: B1 VH with E16Q
VL: B1 VL with T31S
B45: H1.18 L1 XENP34474 (antibody, V domains shown)
VH: B1 VH with S32A
VL: B1 VL with T31S

The target in one test is T1, human TGFßRII (antigen of the Octet experiments) (human, UniProt P37173 23-166). The experiment in a line: BLI (Octet).
T1 sequence (P37173 23-166): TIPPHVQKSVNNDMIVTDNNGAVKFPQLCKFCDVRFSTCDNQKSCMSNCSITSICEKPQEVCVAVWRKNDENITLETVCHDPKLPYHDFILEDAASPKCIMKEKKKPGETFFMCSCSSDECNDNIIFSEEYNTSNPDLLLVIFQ
As for B1, the Kd (commonly the constant that tells how readily two partners part at equilibrium) worked out at 0.539 nM.

As to B2, the Kd was found to be 16.4 nM.

The molecule B3 displayed a Kd of 23.1 nM.

As to B4, binding was put at a Kd of 0.344 nM.

B5 returned a Kd of 2.94 nM.

B6: the Kd came out at 0.782 nM.

In the case of B7, the affinity, expressed as Kd, was 59.3 nM.

The target of a further test is T1, human TGFßRII (antigen of the Octet …). The experiment in a line: BLI (Octet). The source holds these as a separate data set. (In general: BLI is a label-free optical method that tracks binding on a fibre tip over time.)
With B8, the affinity, expressed as Kd, was 7.28 nM.

In turn, B9 registered a Kd of 0.414 nM.

As to B10, the Kd was 0.316 nM.

With B11, the Kd is 0.001 nM.

In turn, B12 came in with a Kd of 0.182 nM.

The molecule B13 displayed a Kd of 0.391 nM.

In turn, B14 gave a Kd of 0.419 nM.

Regarding B15, the Kd amounted to 1 nM.

In turn, B16 registered a Kd of 0.0115 nM.

Regarding B17, the Kd came out at 0.325 nM.

As to B18, the Kd was found to be 5.73 nM.

B19: the Kd was 0.181 nM.

Consider B20, for which the Kd worked out at 0.001 nM.

B21 showed a Kd of 1.79 nM.

Regarding B22, binding was characterised by a dissociation constant (Kd) of 3.6 nM.

Consider B23, for which the Kd amounted to 0.001 nM.

Molecule B24 had a Kd of 0.767 nM.

Regarding B25, binding was characterised by a dissociation constant (Kd) of 0.415 nM.

Consider B26, for which the affinity, expressed as Kd, was 0.836 nM.

B27 showed a Kd of 2.47 nM.

The molecule B28 showed a Kd of 0.245 nM.

As for B29, the Kd was found to be 0.325 nM.

For B30, the Kd was 0.374 nM.

The molecule B31 yielded a Kd of 0.199 nM.

B32 yielded a Kd of 0.496 nM.

With B33, binding was characterised by a dissociation constant (Kd) of 0.559 nM.

Take B34: the Kd was 0.273 nM.

As for B35, binding was characterised by a dissociation constant (Kd) of 1.97 nM.

Molecule B36 showed a Kd of 0.407 nM.

Regarding B37, binding was characterised by a dissociation constant (Kd) of 0.292 nM.

Take B38: the Kd amounted to 0.809 nM.

B39 registered a Kd of 5.9 nM.

As for B40, the affinity, expressed as Kd, was 0.238 nM.

Regarding B41, the dissociation constant (Kd) was found to be 0.128 nM.

B42: the Kd was determined as 1.76 nM.

The molecule B43 yielded a Kd of 0.455 nM.

As to B44, the Kd came out at 0.0242 nM.

The molecule B45 returned a Kd of 0.205 nM.
